Columns and labels:
BVU2420 = molecular target: T1, BVU2420 (Phocaeicola vulgatus, UniProt A6L315); assay: DTNB-coupled thioesterase assay, […] nm; type: biochemical; settings: pH 7.5, 25 °C, 50 mM HEPES, 0.15 M KCl, 1 mM DTNB
T1 sequence (A6L315 1-135): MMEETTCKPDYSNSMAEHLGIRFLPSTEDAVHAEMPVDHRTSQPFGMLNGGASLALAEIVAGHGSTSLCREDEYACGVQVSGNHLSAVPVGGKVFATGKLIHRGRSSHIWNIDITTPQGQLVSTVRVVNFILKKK

PG1653 = molecular target: T2, PG1653 (Porphyromonas gingivalis, UniProt Q7MU91); assay: DTNB-coupled thioesterase assay, […] nm; type: biochemical; settings: pH 7.5, 25 °C, 50 mM HEPES, 0.15 M KCl, 1 mM DTNB
T2 sequence (Q7MU91 1-407): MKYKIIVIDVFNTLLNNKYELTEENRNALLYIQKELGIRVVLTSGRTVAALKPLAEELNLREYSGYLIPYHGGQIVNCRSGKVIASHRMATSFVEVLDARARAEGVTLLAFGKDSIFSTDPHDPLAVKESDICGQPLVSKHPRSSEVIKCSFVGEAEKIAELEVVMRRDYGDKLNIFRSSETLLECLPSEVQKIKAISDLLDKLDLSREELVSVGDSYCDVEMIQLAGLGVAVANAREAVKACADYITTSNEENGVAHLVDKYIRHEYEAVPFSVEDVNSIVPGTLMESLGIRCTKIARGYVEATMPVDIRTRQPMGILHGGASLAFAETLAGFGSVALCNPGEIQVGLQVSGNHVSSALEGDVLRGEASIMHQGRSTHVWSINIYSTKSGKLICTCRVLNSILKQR

BF1314 = molecular target: T3, BF1314 (Bacteroides fragilis, UniProt Q5LFS7); assay: DTNB-coupled thioesterase assay, […] nm; type: biochemical; settings: pH 7.5, 25 °C, 50 mM HEPES, 0.15 M KCl, 1 mM DTNB
T3 sequence (Q5LFS7 1-410): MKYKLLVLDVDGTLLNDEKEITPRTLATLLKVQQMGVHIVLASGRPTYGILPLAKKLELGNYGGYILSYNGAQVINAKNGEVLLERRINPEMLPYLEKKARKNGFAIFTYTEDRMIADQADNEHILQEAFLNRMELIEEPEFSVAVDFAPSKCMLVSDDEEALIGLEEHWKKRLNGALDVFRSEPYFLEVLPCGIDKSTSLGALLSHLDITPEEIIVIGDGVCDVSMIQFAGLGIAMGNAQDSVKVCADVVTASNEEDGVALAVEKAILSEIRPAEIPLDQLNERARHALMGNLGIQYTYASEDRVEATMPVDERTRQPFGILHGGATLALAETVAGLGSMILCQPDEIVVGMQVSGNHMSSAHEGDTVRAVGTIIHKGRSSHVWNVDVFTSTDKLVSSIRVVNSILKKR

purified protein [1] = substrate: CC(C)(COP(=O)(O)OP(=O)(O)OC[C@H]1O[C@@H](n2cnc3c(N)ncnc32)[C@H](O)[C@@H]1OP(=O)(O)O)[C@@H](O)C(=O)NCCC(=O)NCCSC(=O)Cc1cccc(O)c1; assay: purified protein; type: biochemical, Porphyromonas gingivalis; settings: pH 7.5, 25 °C, 50 mM HEPES, 0.15 M KCl, 1 mM DTNB
purified protein [2] = substrate: CC(C)(COP(=O)(O)OP(=O)(O)OC[C@H]1O[C@@H](n2cnc3c(N)ncnc32)[C@H](O)[C@@H]1OP(=O)(O)O)[C@@H](O)C(=O)NCCC(=O)NCCSC(=O)c1cc(O)c2ccccc2c1O; assay: purified protein; type: biochemical, Porphyromonas gingivalis; settings: pH 7.5, 25 °C, 50 mM HEPES, 0.15 M KCl, 1 mM DTNB
purified protein [3] = substrate: CC(C)(COP(=O)(O)OP(=O)(O)OC[C@H]1O[C@@H](n2cnc3c(N)ncnc32)[C@H](O)[C@@H]1OP(=O)(O)O)[C@@H](O)C(=O)NCCC(=O)NCCSC(=O)c1ccccc1; assay: purified protein; type: biochemical, Porphyromonas gingivalis; settings: pH 7.5, 25 °C, 50 mM HEPES, 0.15 M KCl, 1 mM DTNB
purified protein [4] = substrate: CC(C)(COP(=O)(O)OP(=O)(O)OC[C@H]1O[C@@H](n2cnc3c(N)ncnc32)[C@H](O)[C@@H]1OP(=O)(O)O)[C@@H](O)C(=O)NCCC(=O)NCCSC(=O)c1ccc(O)cc1; assay: purified protein; type: biochemical, Porphyromonas gingivalis; settings: pH 7.5, 25 °C, 50 mM HEPES, 0.15 M KCl, 1 mM DTNB
purified protein [5] = substrate: CC(C)(COP(=O)(O)OP(=O)(O)OC[C@H]1O[C@@H](n2cnc3c(N)ncnc32)[C@H](O)[C@@H]1OP(=O)(O)O)[C@@H](O)C(=O)NCCC(=O)NCCSC(=O)Cc1cccc(O)c1; assay: purified protein; type: biochemical, Bacteroides fragilis; settings: pH 7.5, 25 °C, 50 mM HEPES, 0.15 M KCl, 1 mM DTNB
purified protein [6] = substrate: CC(C)(COP(=O)(O)OP(=O)(O)OC[C@H]1O[C@@H](n2cnc3c(N)ncnc32)[C@H](O)[C@@H]1OP(=O)(O)O)[C@@H](O)C(=O)NCCC(=O)NCCSC(=O)c1cc(O)c2ccccc2c1O; assay: purified protein; type: biochemical, Bacteroides fragilis; settings: pH 7.5, 25 °C, 50 mM HEPES, 0.15 M KCl, 1 mM DTNB
purified protein [7] = substrate: CC(C)(COP(=O)(O)OP(=O)(O)OC[C@H]1O[C@@H](n2cnc3c(N)ncnc32)[C@H](O)[C@@H]1OP(=O)(O)O)[C@@H](O)C(=O)NCCC(=O)NCCSC(=O)c1ccccc1; assay: purified protein; type: biochemical, Bacteroides fragilis; settings: pH 7.5, 25 °C, 50 mM HEPES, 0.15 M KCl, 1 mM DTNB
purified protein [8] = substrate: NC(=O)OP(=O)(O)O; assay: purified protein; type: biochemical, Bacteroides fragilis; settings: pH 7.5, 25 °C, 1 mM MgCl2 (table; methods say 2 mM)
purified protein [9] = substrate: CC(C)(COP(=O)(O)OP(=O)(O)OC[C@H]1O[C@@H](n2cnc3c(N)ncnc32)[C@H](O)[C@@H]1OP(=O)(O)O)[C@@H](O)C(=O)NCCC(=O)NCCSC(=O)c1ccc(O)cc1; assay: purified protein; type: biochemical, Bacteroides fragilis; settings: pH 7.5, 25 °C, 50 mM HEPES, 0.15 M KCl, 1 mM DTNB
purified protein [10] = substrate: CC(C)(COP(=O)(O)OP(=O)(O)OC[C@H]1O[C@@H](n2cnc3c(N)ncnc32)[C@H](O)[C@@H]1OP(=O)(O)O)[C@@H](O)C(=O)NCCC(=O)NCCSC(=O)Cc1cccc(O)c1; assay: purified protein; type: biochemical, Phocaeicola vulgatus; settings: pH 7.5, 25 °C, 50 mM HEPES, 0.15 M KCl, 1 mM DTNB
purified protein [11] = substrate: CC(C)(COP(=O)(O)OP(=O)(O)OC[C@H]1O[C@@H](n2cnc3c(N)ncnc32)[C@H](O)[C@@H]1OP(=O)(O)O)[C@@H](O)C(=O)NCCC(=O)NCCSC(=O)c1cc(O)c2ccccc2c1O; assay: purified protein; type: biochemical, Phocaeicola vulgatus; settings: pH 7.5, 25 °C, 50 mM HEPES, 0.15 M KCl, 1 mM DTNB
purified protein [12] = substrate: CC(C)(COP(=O)(O)OP(=O)(O)OC[C@H]1O[C@@H](n2cnc3c(N)ncnc32)[C@H](O)[C@@H]1OP(=O)(O)O)[C@@H](O)C(=O)NCCC(=O)NCCSC(=O)c1ccccc1; assay: purified protein; type: biochemical, Phocaeicola vulgatus; settings: pH 7.5, 25 °C, 50 mM HEPES, 0.15 M KCl, 1 mM DTNB
purified protein [13] = substrate: CC(C)(COP(=O)(O)OP(=O)(O)OC[C@H]1O[C@@H](n2cnc3c(N)ncnc32)[C@H](O)[C@@H]1OP(=O)(O)O)[C@@H](O)C(=O)NCCC(=O)NCCSC(=O)c1ccc(O)cc1; assay: purified protein; type: biochemical, Phocaeicola vulgatus; settings: pH 7.5, 25 °C, 50 mM HEPES, 0.15 M KCl, 1 mM DTNB
purified protein [14] = substrate: O=P(O)(O)NP(=O)(O)O; assay: purified protein; settings: pH 7.5, 25 °C, 1 mM MgCl2 (table; methods say 2 mM)
purified protein [15] = substrate: O=P(O)(O)OC[C@H](O)CO; assay: purified protein; settings: pH 7.5, 25 °C, 1 mM MgCl2 (table; methods say 2 mM)
purified protein [16] = substrate: NC(=O)OP(=O)(O)O; assay: purified protein; settings: pH 7.5, 25 °C, 1 mM MgCl2 (table; methods say 2 mM)
purified protein [17] = substrate: CC(=O)OP(=O)(O)O; assay: purified protein; settings: pH 7.5, 25 °C, 1 mM MgCl2 (table; methods say 2 mM)

Work on napthoyl-CoA yielded a Km (BVU2420) of 180 µM, a Km (PG1653) of 170 µM and a Km (BF1314) of 230 µM.

B1: PG1653 (Porphyromonas gingivalis W83) (protein)
chain: MKYKIIVIDVFNTLLNNKYELTEENRNALLYIQKELGIRVVLTSGRTVAALKPLAEELNLREYSGYLIPYHGGQIVNCRSGKVIASHRMATSFVEVLDARARAEGVTLLAFGKDSIFSTDPHDPLAVKESDICGQPLVSKHPRSSEVIKCSFVGEAEKIAELEVVMRRDYGDKLNIFRSSETLLECLPSEVQKIKAISDLLDKLDLSREELVSVGDSYCDVEMIQLAGLGVAVANAREAVKACADYITTSNEENGVAHLVDKYIRHEYEAVPFSVEDVNSIVPGTLMESLGIRCTKIARGYVEATMPVDIRTRQPMGILHGGASLAFAETLAGFGSVALCNPGEIQVGLQVSGNHVSSALEGDVLRGEASIMHQGRSTHVWSINIYSTKSGKLICTCRVLNSILKQR
For B1, the Km (purified protein [1]) was “(1.7 ± 0.3) × 10^2 μM”, the kcat (purified protein [1]) was 0.31 ± 0.02 s⁻¹ and the Km (purified protein [2]) was 4.0 ± 0.3 µM. For the same molecule, the kcat (purified protein [2]) was 10 ± 1 s⁻¹, the Km (purified protein [3]) was “(5.8 ± 0.5) × 10^1 μM” and the kcat (purified protein [3]) was 0.03 ± 0.001 s⁻¹. For the same molecule, the Km (purified protein [4]) was “(8.0 ± 0.6) × 10^2 μM” and the kcat (purified protein [4]) was 4.6 ± 0.1 s⁻¹.

B2: BF1314 (Bacteroides fragilis NCTC 9343) (protein)
chain: MKYKLLVLDVDGTLLNDEKEITPRTLATLLKVQQMGVHIVLASGRPTYGILPLAKKLELGNYGGYILSYNGAQVINAKNGEVLLERRINPEMLPYLEKKARKNGFAIFTYTEDRMIADQADNEHILQEAFLNRMELIEEPEFSVAVDFAPSKCMLVSDDEEALIGLEEHWKKRLNGALDVFRSEPYFLEVLPCGIDKSTSLGALLSHLDITPEEIIVIGDGVCDVSMIQFAGLGIAMGNAQDSVKVCADVVTASNEEDGVALAVEKAILSEIRPAEIPLDQLNERARHALMGNLGIQYTYASEDRVEATMPVDERTRQPFGILHGGATLALAETVAGLGSMILCQPDEIVVGMQVSGNHMSSAHEGDTVRAVGTIIHKGRSSHVWNVDVFTSTDKLVSSIRVVNSILKKR
In the case of B2, the Km (purified protein [5]) is reported as “(4.6 ± 0.4) × 10^1 μM”, the kcat (purified protein [5]) is reported as 0.19 ± 0.01 s⁻¹ and the Km (purified protein [6]) is reported as 7.0 ± 0.5 µM. For the same molecule, the kcat (purified protein [6]) was 12 ± 1 s⁻¹, the Km (purified protein [7]) was “(8.4 ± 0.8) × 10^1 μM” and the kcat (purified protein [7]) was 0.024 ± 0.002 s⁻¹. The Km (purified protein [8]) was 440 ± 30 µM, the kcat (purified protein [8]) was 0.0217 ± 0.00167 s⁻¹ and the kcat/Km (purified protein [8]) was 54 M⁻¹ s⁻¹. The Km (purified protein [9]) was “(2.3 ± 0.2) × 10^2 μM” and the kcat (purified protein [9]) was 1.1 ± 0.1 s⁻¹.

B3: BVU2420 (Phocaeicola vulgatus ATCC 8482) (protein)
chain: MMEETTCKPDYSNSMAEHLGIRFLPSTEDAVHAEMPVDHRTSQPFGMLNGGASLALAEIVAGHGSTSLCREDEYACGVQVSGNHLSAVPVGGKVFATGKLIHRGRSSHIWNIDITTPQGQLVSTVRVVNFILKKK
B3 was tested, and the Km (purified protein [10]) was “(8.1 ± 0.6) × 10^2 μM”, the kcat (purified protein [10]) was 0.034 ± 0.001 s⁻¹ and the Km (purified protein [11]) was “(1.5 ± 0.1) × 10^1 μM”. For the same molecule, the kcat (purified protein [11]) was 13 ± 1 s⁻¹, the Km (purified protein [12]) was “(3.1 ± 0.4) × 10^1 μM” and the kcat (purified protein [12]) was 0.028 ± 0.001 s⁻¹. For the same molecule, the Km (purified protein [13]) was “(3.3 ± 0.2) × 10^1 μM” and the kcat (purified protein [13]) was 1.2 ± 0.1 s⁻¹.

B4: BF1314-HAD Domain (Bacteroides fragilis NCTC 9343) (protein)
chain: MKYKLLVLDVDGTLLNDEKEITPRTLATLLKVQQMGVHIVLASGRPTYGILPLAKKLELGNYGGYILSYNGAQVINAKNGEVLLERRINPEMLPYLEKKARKNGFAIFTYTEDRMIADQADNEHILQEAFLNRMELIEEPEFSVAVDFAPSKCMLVSDDEEALIGLEEHWKKRLNGALDVFRSEPYFLEVLPCGIDKSTSLGALLSHLDITPEEIIVIGDGVCDVSMIQFAGLGIAMGNAQDSVKVCADVVTASNEEDGVALAVEKAILSEIRPAEIPLDQLNERARHAL
Work on B4 yielded a Km (purified protein [14]) of 7400 ± 500 µM, a kcat (purified protein [14]) of 0.383 ± 0.0167 s⁻¹ and a kcat/Km (purified protein [14]) of 51 M⁻¹ s⁻¹. It also gave a Km (purified protein [15]) of 63 ± 2 µM, a kcat (purified protein [15]) of 0.011 ± 0.001 s⁻¹ and a kcat/Km (purified protein [15]) of 170 M⁻¹ s⁻¹. The Km (purified protein [16]) was 970 ± 80 µM, the kcat (purified protein [16]) was 0.04167 ± 0.000333 s⁻¹ and the kcat/Km (purified protein [16]) was 42 M⁻¹ s⁻¹. It also gave a Km (purified protein [17]) of 870 ± 60 µM, a kcat (purified protein [17]) of 0.02 ± 0.00167 s⁻¹ and a kcat/Km (purified protein [17]) of 23 M⁻¹ s⁻¹.

Reference: PMC3912074 (FEBS letters, 2013)
